Positions count from the first letter of the chain named. Names may count otherwise.

First the molecules themselves.
T1: human TGFβ2 (human, UniProt P61812 303-414)
T1 construct: also called TGFβ2 homodimer
T1 sequence: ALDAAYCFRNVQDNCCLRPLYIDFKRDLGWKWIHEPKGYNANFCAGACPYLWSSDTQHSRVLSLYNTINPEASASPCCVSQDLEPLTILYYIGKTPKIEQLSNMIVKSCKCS

T2: human TGFβ3 (human, UniProt P10600 301-412)
T2 sequence: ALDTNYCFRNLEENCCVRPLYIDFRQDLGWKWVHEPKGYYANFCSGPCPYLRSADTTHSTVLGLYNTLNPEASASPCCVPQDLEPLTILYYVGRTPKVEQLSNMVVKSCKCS

B1: I52W (antibody, V domains shown)
VH: QVQLVQSGAEVKKPGSSVKVSCKASGYTFSSNVISWVRQAPGQGLEWMGGVWPIVDIANYAQRFKGRVTITADESTSTTYMELSSLRSEDTAVYYCASTLGLVLDAMDYWGQGTLVTVSS
VL: ETVLTQSPGTLSLSPGERATLSCRASQSLGSSYLAWYQQKPGQAPRLLIYGASSRAPGIPDRFSGSGSGTDFTLTISRLEPEDFAVYYCQQYADSPITFGQGTRLEIK
notes: GC1008 IgG4 variant
B2: I52C (antibody, V domains shown)
VH: B1 VH with W52C
VL: B1 VL
notes: GC1008 IgG4 variant
B3: I52Q (antibody, V domains shown)
VH: B1 VH with W52Q
VL: B1 VL
notes: GC1008 IgG4 variant
B4: V55K (antibody, V domains shown)
VH: B1 VH with W52I, V55K
VL: B1 VL
notes: GC1008 IgG4 variant
B5: I52E (antibody, V domains shown)
VH: B1 VH with W52E
VL: B1 VL
notes: GC1008 IgG4 variant
B6: I52K (antibody, V domains shown)
VH: B1 VH with W52K
VL: B1 VL
notes: GC1008 IgG4 variant
B7: I52G (antibody, V domains shown)
VH: B1 VH with W52G
VL: B1 VL
notes: GC1008 IgG4 variant
B8: I52N (antibody, V domains shown)
VH: B1 VH with W52N
VL: B1 VL
notes: GC1008 IgG4 variant
B9: I52S (antibody, V domains shown)
VH: B1 VH with W52S
VL: B1 VL
notes: GC1008 IgG4 variant
B10: I52R (antibody, V domains shown)
VH: B1 VH with W52R
VL: B1 VL
notes: GC1008 IgG4 variant
B11: I52H (antibody, V domains shown)
VH: B1 VH with W52H
VL: B1 VL
notes: GC1008 IgG4 variant
B12: I52D (antibody, V domains shown)
VH: B1 VH with W52D
VL: B1 VL
notes: GC1008 IgG4 variant
B13: A93R(LC) (antibody, V domains shown)
VH: B1 VH with W52I
VL: B1 VL with A93R
notes: GC1008 IgG4 variant, light chain substitution
B14: V103R (antibody, V domains shown)
VH: B1 VH with W52I, V103R
VL: B1 VL
notes: GC1008 IgG4 variant
B15: L104R (antibody, V domains shown)
VH: B1 VH with W52I, L104R
VL: B1 VL
notes: GC1008 IgG4 variant
B16: L104K (antibody, V domains shown)
VH: B1 VH with W52I, L104K
VL: B1 VL
notes: GC1008 IgG4 variant

T3 sequence (P01137 279-390 limits assumed): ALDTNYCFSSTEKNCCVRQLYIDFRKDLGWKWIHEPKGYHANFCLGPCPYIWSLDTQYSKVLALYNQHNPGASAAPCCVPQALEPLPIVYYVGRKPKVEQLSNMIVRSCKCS

One assay has as its target T3, human TGFβ1 (human, UniProt P01137 279-390).
T3 construct: also called TGFβ1 homodimer
Briefly: Biacore, immobilised TGFβ.
For the molecule B1, the binding result is given as “no binding (tested: 50 nM)”.
Regarding B2, the binding result is on record as “no binding (tested: 50 nM)”.
In the case of B3, the binding result is reported as “no binding (tested: 50 nM)”.
On the same count and under the same terms, as for B4, the entry is “no binding (tested: 50 nM)”; as for B5, “no binding (tested: 50 nM)”; as for B6, “no binding (tested: 50 nM)”.
Still for that read-out and setting: as for B7, the entry is “no binding (tested: 50 nM)”.
In the case of B8, the binding result was “no binding (tested: 50 nM)”.
Consider B9, for which the binding result was “no binding (tested: 50 nM)”.
B10: the binding result is “no binding (tested: 50 nM)”.
Regarding B11, the binding result is given as “no binding (tested: 50 nM)”.
Take B12: the binding result is “no binding (tested: 50 nM)”.

Another assay has as its target T1, human TGFβ2. Briefly: Biacore, immobilised TGFβ.
For B1, the binding result is recorded as “no binding (tested: 50 nM)”.
On the same count and under the same terms, as for B2, the entry is “no binding (tested: 50 nM)”; as for B3, “no binding (tested: 50 nM)”.
Turning to B4, the binding result is listed as “no binding (tested: 50 nM)”.
Consider B5, for which the binding result is on record as “no binding (tested: 50 nM)”.
Consider B6, for which the binding result was “no binding (tested: 50 nM)”.
On to B7, for which the binding result is reported as “no binding (tested: 50 nM)”.
On to B8, for which the binding result is recorded as “no binding (tested: 50 nM)”.
Consider B9, for which the binding result is “no binding (tested: 50 nM)”.
With B10, the binding result is reported as “no binding (tested: 50 nM)”.
Consider B11, for which the binding result is “no binding (tested: 50 nM)”.
On to B12, for which the binding result is reported as “no binding (tested: 50 nM)”.

A further assay has as its target T2, human TGFβ3. Briefly: Biacore, immobilised TGFβ.
B1: the binding result was “no binding (tested: 50 nM)”.
Same read-out and setting: as for B2, the entry is “no binding (tested: 50 nM)”; as for B3, “no binding (tested: 50 nM)”; as for B4, “no binding (tested: 50 nM)”.
B5: the binding result is listed as “no binding (tested: 50 nM)”.
On to B6, for which the binding result is listed as “no binding (tested: 50 nM)”.
For the molecule B7, the binding result is “no binding (tested: 50 nM)”.
For B8, the binding result was “no binding (tested: 50 nM)”.
Still for that read-out and setting: as for B9, the entry is “no binding (tested: 50 nM)”; as for B10, “no binding (tested: 50 nM)”; as for B11, “no binding (tested: 50 nM)”.
Take B12: the binding result was “no binding (tested: 50 nM)”.

A further assay concerns the target T3, human TGFβ1. Briefly: Biacore, immobilised TGFβ. The source holds these as a separate data set.
B13: the binding result is listed as “no binding (tested: 50 nM)”.
With B14, the binding result is “no binding (tested: 50 nM)”.
Take B15: the binding result is given as “no binding (tested: 50 nM)”.
Still for that read-out and setting: as for B16, the entry is “no binding (tested: 50 nM)”.

The target of the next assay is T1, human TGFβ2. Briefly: Biacore, immobilised TGFβ. This is another data set of the same source.
For the molecule B13, the binding result is given as “no binding (tested: 50 nM)”.
As for B14, the binding result is “no binding (tested: 50 nM)”.
The same measure, in the same setting: as for B15, the entry is “no binding (tested: 50 nM)”.
On the same count and under the same terms, as for B16, the entry is “no binding (tested: 50 nM)”.

The target of another assay is T2, human TGFβ3. The assay is described as follows: Biacore, immobilised TGFβ. This is another data set of the same source.
Take B13: the binding result was “no binding (tested: 50 nM)”.
Turning to B14, the binding result is on record as “no binding (tested: 50 nM)”.
On to B15, for which the binding result was “no binding (tested: 50 nM)”.
Turning to B16, the binding result is “no binding (tested: 50 nM)”.

For the origin of these results see US20170342144A1 (Sanofi, published 2017).
